Here are results for 15 molecules from US20220177587A1, “METHODS AND USES OF VARIANT CD80 FUSION PROTEINS AND RELATED CONSTRUCTS” (Alpine Immune Sciences, Inc., priority 2018, published 2022).

To fix the notation:
B1: CD80 Y53C/L70Q/D90G/T130A/N149D/N152T/H188D ECD-Fc (Fc fusion)
chain: VIHVTKEVKEVATLSCGHNVSVEELAQTRIYWQKEKKMVLTMMSGDMNIWPECKNRTIFDITNNLSIVIQALRPSDEGTYECVVLKYEKGAFKREHLAEVTLSVKADFPTPSISDFEIPTSNIRRIICSASGGFPEPHLSWLENGEELDAITTTVSQDPETELYAVSSKLDFNMTTNHSFMCLIKYGDLRVNQTFNWNTTKQEHFPDN
B2: CD80 Y53C/L85R/K89N/A91T/F92P/K93V/R94L/I118V/T120S/I127T/T130A/K169E ECD-Fc (Fc fusion)
chain: VIHVTKEVKEVATLSCGHNVSVEELAQTRIYWQKEKKMVLTMMSGDMNIWPECKNRTIFDITNNLSIVILALRPSDEGTYECVVRKYENDTPVLEHLAEVTLSVKADFPTPSISDFEVPSSNIRRITCSASGGFPEPHLSWLENGEELNAINTTVSQDPETELYAVSSELDFNMTTNHSFMCLIKYGHLRVNQTFNWNTTKQEHFPDN
B3: CD80 H18L/R29D/Y31L/Q33H/K36G/M38I/T41A/M43R/M47T/E81V/L85R/K89N/A91T/F92P/K93V/R94L/F116S/T130A/H188D ECD-Fc (Fc fusion)
chain: VIHVTKEVKEVATLSCGLNVSVEELAQTDILWHKEGKIVLAMRSGDTNIWPEYKNRTIFDITNNLSIVILALRPSDEGTYVCVVRKYENDTPVLEHLAEVTLSVKADFPTPSISDSEIPTSNIRRIICSASGGFPEPHLSWLENGEELNAINTTVSQDPETELYAVSSKLDFNMTTNHSFMCLIKYGDLRVNQTFNWNTTKQEHFPDN
B4: CD80 C16S/H18L/R29D/Y31L/Q33H/K36G/M38I/T41A/M43R/M47T/E81V/L85R/K89N/A91T/F92P/K93V/R94L/T110A/I118V/H188D ECD-Fc (Fc fusion)
chain: B3 chain with C16S, T110A, S116F, I118V, A130T
B5: CD80 R29D/Y31L/Q33H/K36G/M38I/T41A/M43R/M47T/L70Q/D76G/A91G/S103L/I118V/T120S/I127T/T130A ECD-Fc (Fc fusion)
chain: VIHVTKEVKEVATLSCGHNVSVEELAQTDILWHKEGKIVLAMRSGDTNIWPEYKNRTIFDITNNLSIVIQALRPSGEGTYECVVLKYEKDGFKREHLAEVTLLVKADFPTPSISDFEVPSSNIRRITCSASGGFPEPHLSWLENGEELNAINTTVSQDPETELYAVSSKLDFNMTTNHSFMCLIKYGHLRVNQTFNWNTTKQEHFPDN
B6: variant CD80 IgV-Fc V22A/E35D/M47I/Y87N (Fc fusion)
chain: VIHVTKEVKEVATLSCGHNVSAEELAQTRIYWQKDKKMVLTMMSGDINIWPEYKNRTIFDITNNLSIVILALRPSDEGTYECVVLKNEKDAFKREHLAEVTLSVKAD
B7: variant CD80 IgV-Fc D46V/M47I/A71G (Fc fusion)
chain: B6 chain with A22V, D35E, D46V, A71G, N87Y
B8: variant CD80 IgV-Fc Q27H/E35D/M47I (Fc fusion)
chain: B6 chain with A22V, Q27H, N87Y
B9: variant CD80 IgV-Fc E35D/M47L/A71G/L85M (Fc fusion)
chain: B6 chain with A22V, I47L, A71G, L85M, N87Y
B10: variant CD80 IgV-Fc E35D/D46E (Fc fusion)
chain: B6 chain with A22V, D46E, I47M, N87Y
B11: variant CD80 IgV-Fc M47I/A71G (Fc fusion)
chain: B6 chain with A22V, D35E, A71G, N87Y
B12: variant CD80 IgV-Fc E35D/D46E/L85M (Fc fusion)
chain: B6 chain with A22V, D46E, I47M, L85M, N87Y
B13: variant CD80 IgV-Fc H18Y/E35D/M47L/A71G/A91S (Fc fusion)
chain: B6 chain with H18Y, A22V, I47L, A71G, N87Y, A91S
B14: variant CD80 IgV-Fc E35D/D46E/M47I (Fc fusion)
chain: B6 chain with A22V, D46E, N87Y
B15: variant CD80 IgV-Fc E35D/L97R (Fc fusion)
chain: B6 chain with A22V, I47M, N87Y, L97R

Numbering of substitutions follows the chain as printed. In names and notes the source's numbering stands.

In one test the target is CD28 (human) (UniProt P10747). Put plainly: flow cytometry, transfected Expi293F cells. For orientation: Flow cytometry measures light scatter and fluorescence of single cells or particles in a stream.
On to B1, for which the MFI came out at 1990 and the parental ratio was 0.04.

With B2, the MFI worked out at 1400 and the parental ratio worked out at 0.03.

For the molecule B3, the MFI was found to be 1240 and the parental ratio was determined as 0.03.

In the case of B4, the MFI was 1210 and the parental ratio turned out to be 0.03.

Take B5: the MFI came out at 1910 and the parental ratio is 0.04.

For a further test, the target named is human CTLA-4 (human) (UniProt P16410). Nature of the test: flow cytometry, transfected Expi293F cells.
Chain of human CTLA-4 (human) (P16410 36-223): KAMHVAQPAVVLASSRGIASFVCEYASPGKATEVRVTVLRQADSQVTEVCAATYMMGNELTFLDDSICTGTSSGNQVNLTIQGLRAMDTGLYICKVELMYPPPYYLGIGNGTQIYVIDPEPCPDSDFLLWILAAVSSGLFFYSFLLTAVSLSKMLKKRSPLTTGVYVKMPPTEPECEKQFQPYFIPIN
As to B1, the MFI was determined as 3110 and the parental ratio was 0.01.

Take B2: the MFI stood at 1460 and the parental ratio came to 0.01.

Consider B3, for which the MFI worked out at 2090 and the parental ratio was found to be 0.01.

As for B4, the MFI was 1800 and the parental ratio was found to be 0.01.

In the case of B5, the MFI was found to be 1730 and the parental ratio stood at 0.01.

The target of the next test is human PD-L1 (human) (UniProt Q9NZQ7). Put plainly: flow cytometry, transfected Expi293F cells.
Chain of human PD-L1 (human) (Q9NZQ7 19-290): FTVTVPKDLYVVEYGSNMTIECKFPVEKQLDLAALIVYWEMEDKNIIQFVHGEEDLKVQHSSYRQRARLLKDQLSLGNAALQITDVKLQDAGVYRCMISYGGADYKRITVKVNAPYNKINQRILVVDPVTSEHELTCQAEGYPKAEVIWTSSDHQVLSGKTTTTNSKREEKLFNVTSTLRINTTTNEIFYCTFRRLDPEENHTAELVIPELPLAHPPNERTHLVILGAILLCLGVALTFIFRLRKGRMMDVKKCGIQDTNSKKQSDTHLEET
As for B1, the MFI was 3290 and the parental ratio is 0.04.

Consider B2, for which the MFI worked out at 2550 and the parental ratio was determined as 0.03.

Regarding B3, the MFI stood at 110000 and the parental ratio came to 0.03.

For the molecule B4, the MFI was 4500 and the parental ratio is 0.03.

As for B5, the MFI was determined as 3510 and the parental ratio stood at 0.04.

In the next test the target is human CTLA-4 (human) (UniProt P16410). Nature of the test: flow cytometry, CHO cells expressing huCTLA4.
B6 gave an MFI at 33.3 nM of 246000 MFI.

Another test has as its target human PD-L1 (human) (UniProt Q9NZQ7). Nature of the test: flow cytometry, CHO cells expressing huPD-L1.
The molecule B6 registered an MFI at 33.3 nM of 35300 MFI.

A further test addresses CD28 (human) (UniProt P10747). Nature of the test: flow cytometry, Jurkat/IL2 reporter cells (CD28).
For the molecule B6, the MFI at 33.3 nM stood at 15300 MFI.

In another test the target is human CTLA-4 (human) (UniProt P16410). Put plainly: flow cytometry, CHO cells expressing huCTLA4, vs WT CD80 ECD-Fc (R&D).
The molecule B6 showed a Fold change to WT CD80 of 1.56 fold.

In a further test the target is CD28 (human) (UniProt P10747). Put plainly: flow cytometry, Jurkat/IL2 reporter cells (CD28), vs WT CD80 ECD-Fc (R&D).
In turn, B6 had a Fold change to WT CD80 of 0.85 fold.

The target of another test is human PD-L1 (huPD-L1), on stably transduced CHO cells (human) (UniProt Q9NZQ7). Put plainly: flow cytometry; ratio of MFI on CHO/huPD-L1 cells to MFI on Jurkat (CD28) cells.
Chain of human PD-L1 (huPD-L1), on stably transduced CHO cells (human) (Q9NZQ7 19-290): as above
With B7, the Ratio of PDL1:CD28 is 6.

For the molecule B8, the Ratio of PDL1:CD28 amounted to 5.

Regarding B9, the Ratio of PDL1:CD28 was 42.

Turning to B10, the Ratio of PDL1:CD28 amounted to 5.

As to B11, the Ratio of PDL1:CD28 worked out at 6.

As for B12, the Ratio of PDL1:CD28 is 18.

As for B13, the Ratio of PDL1:CD28 was 14.

Regarding B14, the Ratio of PDL1:CD28 turned out to be 4.

Another test concerns the target human CTLA-4 (huCTLA4), on stably transduced CHO cells (human) (UniProt P16410). Nature of the test: flow cytometry on CHO/huCTLA4 cells; MFI relative to WT CD80 (CD80 WT IgV-Fc = 1.0).
For the molecule B7, the Fold change to WT CD80 is 14.8 fold.

B8 gave a Fold change to WT CD80 of 14.4 fold.

Turning to B9, the Fold change to WT CD80 worked out at 8.7 fold.

Molecule B10 displayed a Fold change to WT CD80 of 14.6 fold.

Regarding B11, the Fold change to WT CD80 amounted to 14.5 fold.

Regarding B12, the Fold change to WT CD80 worked out at 15.8 fold.

For B13, the Fold change to WT CD80 is 12.6 fold.

As to B14, the Fold change to WT CD80 is 11.2 fold.

Another test concerns the target human PD-L1 (huPD-L1), on stably transduced CHO cells (human) (UniProt Q9NZQ7). Nature of the test: flow cytometry on CHO/huPD-L1 cells; MFI relative to WT CD80 (CD80 WT IgV-Fc = 1.0).
With B7, the Fold change to WT CD80 came to 104 fold.

Consider B8, for which the Fold change to WT CD80 worked out at 48.7 fold.

Molecule B9 had a Fold change to WT CD80 of 118 fold.

As to B10, the Fold change to WT CD80 worked out at 53.4 fold.

In the case of B11, the Fold change to WT CD80 is 72.5 fold.

As to B12, the Fold change to WT CD80 was 41 fold.

In turn, B13 gave a Fold change to WT CD80 of 108 fold.

For the molecule B14, the Fold change to WT CD80 was 53.9 fold.

The next test concerns the target CD28, endogenously expressed on Jurkat/IL2 reporter cells (human) (UniProt P10747). Put plainly: flow cytometry on Jurkat (CD28) cells; MFI relative to WT CD80 (CD80 WT IgV-Fc = 1.0).
With B7, the Fold change to WT CD80 was determined as 20.1 fold.

The molecule B8 showed a Fold change to WT CD80 of 11.5 fold.

Take B9: the Fold change to WT CD80 was 3 fold.

As for B10, the Fold change to WT CD80 was determined as 11.8 fold.

On to B11, for which the Fold change to WT CD80 was found to be 12.5 fold.

For the molecule B12, the Fold change to WT CD80 worked out at 2.5 fold.

B13 gave a Fold change to WT CD80 of 8 fold.

B14: the Fold change to WT CD80 was 15.2 fold.

The target of the next test is human CTLA-4 (huCTLA4), on stably transduced CHO cells (human) (UniProt P16410). Nature of the test: flow cytometry on CHO cells stably expressing huCTLA4, 33.3 nM Fc fusion, PE anti-human Fc.
Chain of human CTLA-4 (huCTLA4), on stably transduced CHO cells (human) (P16410 36-223): as the sequence (P16410 36-223) above
B7 returned an MFI at 33.3 nM of 28400 MFI.

In the case of B8, the MFI at 33.3 nM is 27500 MFI.

With B9, the MFI at 33.3 nM came to 16600 MFI.

As for B10, the MFI at 33.3 nM came to 27900 MFI.

Take B11: the MFI at 33.3 nM was 27800 MFI.

For B12, the MFI at 33.3 nM is 30300 MFI.

B13 yielded an MFI at 33.3 nM of 24200 MFI.

Molecule B14 returned an MFI at 33.3 nM of 21400 MFI.

The molecule B15 had an MFI at 33.3 nM of 22800 MFI.

For a further test, the target named is human PD-L1 (huPD-L1), on stably transduced CHO cells (human) (UniProt Q9NZQ7). Nature of the test: flow cytometry on CHO cells stably expressing huPD-L1, 33.3 nM Fc fusion, PE anti-human Fc.
B7 showed an MFI at 33.3 nM of 7330 MFI.

B8 came in with an MFI at 33.3 nM of 3420 MFI.

The molecule B9 showed an MFI at 33.3 nM of 8310 MFI.

The molecule B10 had an MFI at 33.3 nM of 3760 MFI.

In the case of B11, the MFI at 33.3 nM was found to be 5100 MFI.

As for B12, the MFI at 33.3 nM was 2880 MFI.

B13 returned an MFI at 33.3 nM of 7580 MFI.

With B14, the MFI at 33.3 nM worked out at 3790 MFI.

As for B15, the MFI at 33.3 nM was 2610 MFI.

Another test concerns the target CD28, endogenously expressed on Jurkat/IL2 reporter cells (human) (UniProt P10747). Nature of the test: flow cytometry on Jurkat/IL2 reporter cells (endogenous CD28), 33.3 nM Fc fusion, PE anti-human Fc.
For B7, the MFI at 33.3 nM worked out at 1320 MFI.

Consider B8, for which the MFI at 33.3 nM was found to be 756 MFI.

The molecule B9 showed an MFI at 33.3 nM of 199 MFI.

On to B10, for which the MFI at 33.3 nM worked out at 779 MFI.

Consider B11, for which the MFI at 33.3 nM was 823 MFI.

As to B12, the MFI at 33.3 nM is 164 MFI.

B13 returned an MFI at 33.3 nM of 528 MFI.

On to B14, for which the MFI at 33.3 nM was 1000 MFI.

For the molecule B15, the MFI at 33.3 nM was 44.6 MFI.
